Laboratory results published in article PMC13571933, “Active transport by cytoplasmic dynein sustains dendritic MAP2 localization in developing neurons” (The Journal of Biological Chemistry, 2026).

Assays:
[1] = biological target: GFP-MAP2C ΔSP (human MAP2C lacking the serine/proline-rich region), expressed in HEK293 cells (human) (UniProt P11137); assay: co-IP; anti-His antibody on Dynabeads Protein G; 500 μg lysate of HEK293 cells co-expressing DHC1 and GFP-His-MAP2C; 50 mM Hepes pH 7.4, 100 mM NaCl, 2 mM EDTA, 0.5% Triton X-100; 1 h at 4 °C; blot with anti-DHC1 and anti-GFP, bands quantified with ImageJ
[2] = biological target: T1, microtubules (MTs), endogenous in cultured rat hippocampal neurons (rat (endogenous in hippocampal neurons), UniProt Q4QRB4 1-450, Representative alpha/beta heterodimer of a microtubule polymer (many copies). Endogenous neuronal microtubules are a mixture of tubulin isotypes. The alpha member is not told in the paper (Tuba1a assu)); assay: FRAP fitted with a reaction-diffusion simulation; as a3 but with 40 μM MT binding sites assumed; conditions: partners not purified
[3] = biological target: T1, microtubules (MTs), endogenous in …; assay: FRAP fitted with a reaction-diffusion simulation; FRAP of GFP-MAP2C in living neurons; KD from the best fit of a VCell simulation; 75 μM MT binding sites, 25 μM GFP-MAP2C and 5 μM endogenous MAP2 assumed; kon set, koff adjusted; conditions: partners not purified

Molecule	co-immunoprecipitated DHC1 normalized to immunoprecipitated GFP-MAP2C, relative to WT (relative to the WT condition (set to 1)) [1]	Kd [2]	Kd [3]
cytoplasmic dynein heavy chain 1 (DHC1), expressed from a plasmid in HEK293 cells, Q14204 1-4646	0.45		
GFP-MAP2C (human MAP2C tagged with AcGFP and 6xHis, wild type), expressed in cultured rat hippocampal neurons (natural protein, UniProt P11137-2 1-471, looked up, MAP2C, low molecular weight isoform of human microtubule-associated protein 2; the 471-amino-acid isoform; Same construct as m1, other host; also called wild-type GFP-MAP2C; WT; source: cultured rat hippocampal neurons, transfected, in living cells; not shown: AcGFP, N-terminal, kept) MADERKDEAKAPHWTSAPLTEASAHSHPPEIKDQGGAGEGLVRSANGFPYREDEEGAFGEHGSQGTYSNTKENGINGELTSADRETAEEVSARIVQVVTAEAVAVLKGEQEKEAQHKDQTAALPLAAEETANLPPSPPPSPASEQTVTVEEAAGGESALAPSVFKQAKDKVSDGVTKSPEKRSSLPRPSSILPPRRGVSGDRDENSFSLNSSISSSARRTTRSEPIRRAGKSGTSTPTTPGSTAITPGTPPSYSSRTPGTPGTPSYPRTPHTPGTPKSAILVPSEKKVAIIRTPPKSPATPKQLRLINQPLPDLKNVKSKIGSTDNIKYQPKGGQVQIVTKKIDLSHVTSKCGSLKNIRHRPGGGRVKIESVKLDFKEKAQAKVGSLDNAHHVPGGGNVKIDSQKLNFREHAKARVDHGAEIITQSPGRSSVASPRRLSNVSSSGSINLLESPQLATLAEDVTAALAKQGL		1000 nM	4500 nM
